Data published in patent US20050059107A1.

Columns and labels:
[1] = target: HLA-DP4 molecule DP401 (DPA1*0103/DPB1*0401) (human) (UniProt P20036); test: competition ELISA
[2] = target: HLA-DP4 molecule DP402 (DPA1*0103/DPB1*0402) (human) (UniProt P20036); test: competition ELISA
[3] = target: HLA-DP4 molecule DP401 (DPA1*0103/DPB1*0401) (human) (UniProt P20036); test: competition ELISA, tracer bUNK1
[4] = target: HLA-DP4 molecule DP402 (DPA1*0103/DPB1*0402) (human) (UniProt P20036); test: competition ELISA, tracer bUNK1
[5] = target: HLA-DP4 molecule DP401 (DPA1*0103/DPB1*0401) (human) (UniProt P20036); test: competition ELISA; capped, '>10 000' in Table VII
[6] = target: HLA-DP4 molecule DP402 (DPA1*0103/DPB1*0402) (human) (UniProt P20036); test: competition ELISA; capped, '>10 000' in Table VII

| Substance | IC50 [1] | IC50 [2] | IC50 [3] | IC50 [4] | relative binding activity vs UNK1 (IC50 ratio) [4] | IC50 [5] | IC50 [6] |
| --- | --- | --- | --- | --- | --- | --- | --- |
| Api m1 65-82 (peptide) | 50 µM | 6.5 µM | 50 µM | 6.5 µM | 371 fold | – | – |
| Api m1 69-86 (peptide) | – | – | > 10 µM | > 10 µM | – | 10 µM | > 10 µM |
| Api m1 73-90 (peptide) | – | – | > 10 µM | > 10 µM | – | 10 µM | > 10 µM |
| Api m1 81-98 (peptide) | 2.25 µM | – | 2.25 µM | – | – | – | – |
